# Test results taken from the domain aggregation screens of Martell et al. (2025).
# Assay: soluble fraction after stress (log2 fold change); higher = more stays soluble; pooled small domains, quantitative proteomics
# Conditions: stress: 50 degC
# Outline: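 Pooled custom libraries of small protein domains were measured in a high-throughput format, with quantitative proteomics as the read-out. Each library was stressed at 50°C. Aggregation propensity is given as the base-two logarithm of the fold change in how much of each protein stays soluble after the stress. Higher values mean a larger share of the protein remains in solution.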
row,Sequence,soluble fraction (log2)
1,HMGQVGIPFSDFLAEVENGQVREVVIKGNDISGTFNDNRGFSTYAPNDPNLVEKLTKRGVVINAQPTE,0.0645
2,HMKIPIIYQPLKNAKRIKIYIPYELKELRTIFKKINTTFWHPNQKLWSIIYTQENVALIKNLFGKNYKIVN,-0.547
3,HMSHDTLVYRLAQMLVKLNQGEKLDPQQLAEEFGVNLRTIQRDLNVRFAYLQLEKTDGRYHLDPTFL,-0.999
4,HMQPFTELTPREREILGHLAEGQSNKVIARHLDISDGTVKLHVKAILRKLGVHSRVEAAVMAVEHGIR,-1.31
5,HMKRGDAYASEMIARLKEAHLIVMEGTLYPLLTRLKNDGLLSYRWEESTQGPPRKYYSITPVG,0.424
6,HMRSVPNVAGLGMDGAAFQLGKAGFAIGTITPADDPKAVVGSIQRTEPAAGTVADRDTVVNLFQV,0.0939
7,HMDRDMGSMTDFENVRDAYLTGKVWNVGDLIEANGITGIIIRKGTNYVSYNDGDGKVHKAWLHDITL,-0.886
8,HMLHNEFINDRIQSAINNLSEHFKIVIILRDIQELSYEEISNIVEVPLGTIKSRINRARIQLQAELLDL,0.269
9,HMIKNKDRIQYTLAHRKAFRKIEKELLGYNTFRSLFHDLDKVFLYPFFDYKKVHNFHRNHAHH,0.199
10,HMNVNSQQINDLEKSIQKFFDKDIKNYLNQNLSNDRMISKNEIDKIILLYYGSDKEPTLDEIKSIFN,-0.0913
11,HMRKVVLEEKEANYYAEPNSESELLGVLKRGIHLTVTDVKKEAGSDGWVKLVHPDGQEGWISGRARIRV,-0.0551
12,HMGDLEEAVKDFSEAIRLNDSWAEAYANRAVVYAEQGDAAQSDQDAEKARLLGVDQNRLNEMLNAVNS,0.0258
13,HMAPDGIEDKEGWLKVLPMITNLSIQMQNLQARGMDYEHIRNLLHETLLRYDDRIDSNLFIPNV,4.47e-05
14,HMYRSGGYTGAGKDDEEAGVVHRNEFVNTADAVRNPHVKRFLDVFNVAQKDGTIRMLNTSQILERARLDA,0.123
15,HMKTRNISGNHEAVWQAVRSRTQAGHPTTRAVIMDDLKAQGLNTQKFSRWLKKLVDDGSVYMDGDTIIMGK,-0.186
16,HMSPAETGIYHILVENGKPNRHGLDATNKNENWLRQFLITQNTRLEDVFLLLADDGGGIRFFKSQ,-0.498
17,HMTKMTPNRQLVLSVLQSSGKPLSAYELLDRLREQGTQWQPPTAYRALDYLVEQGLAHYLQSIQKYV,-1.1
18,HMTHHGHSIKRIRDMLGIKQETLAAELNMTQQAFSKLEQKEQIEDEMLDKIAKILHVSTEALKT,-0.00336
19,HMLPELQPGQTFSARIQQALPDNTYRALVAGKQLTLQLPEGAKAGDELELVVLDRSARVIIARQVD,-0.146
20,HMDGISANAVKALIESLIAGEDKRKPLSDQAMSDRLALQGIVLARRTVAKYREELNFPPAHQRKQK,-0.572
21,HMLAFDKDDSGAVAEIILVLGRYWMDFSHKKYPAAEGVALRHKGLSHIFTVLRPYLSTPASELIGERLRR,-0.409
22,HMFVTGTTIKKLREEKRMTQGELAQMIGVSDKAVSKWETGRGLPDISLLEPLSRALGISVAELFAGQH,-0.0392
23,HMGAYPENSLLKERGQSAVYLIQENRKRLFFNAEAFLINGYNWKDIQVVDDLSKILTGKVIYAK,-2.76
24,HMQMEYEKAIAYILDKIKSGELSIGSKLPAERVIADTLHIGRNSTREALSILHGMGMVDRVHGSGNYISEH,-0.421
25,HMSEFVIPLAKYNKALYTQVSLGMRFRMLFETEDSGVRRYMGTITGIGDLDPIRWKNSHWRNLQV,0.111
26,HMITMWYYKKDGNIIGPASARKIASMRELGIITDSTPVSRKRNAKNWETFGGLSEKINLESSQWD,-1.9

row,Sequence,soluble fraction (log2)
1,HMWAVDFVLLDKDDQRIGNAVAYRDDRTKGMDEEVYRTVPEEELYASTGIQKQIFNSIYQLMAWKK,0.0151
2,HMDLRVKRTNKMIMEAFIHLVEQKGYDNITVQEIADEAMINRATFYAHFKDKQDLYDHIFKQAI,-0.762
3,HMNNLSEELNVTFPRTRDQLLNILHYVQHKYGYISKVSMQEIGNHIKMPVSEIYGTVTSYSEFKI,-1.54
4,HMENQFNDWSLTPSEKEVALFMLKGLSTQEIAAARNTKEKTVRQQASAVYAKSQLDGRYALAAWFFEDI,-0.567
5,HMKMSLKENLLELLQKSSGEFLSGERAAETLGVSRTAVWKAVTSLKNEGYNIESVTNRGYRFS,-0.0145
6,HMDAMQAFPNPTVDEIHFVTPTTGRVYNAHGQLVMVLKNAQLVNVRQWSAGQYVIVREDGYAVRWIK,-1.04
7,HMAEPLYKQVKNKIIQNLTSDEWKPGSVIPSETKLAETYGVGVSTIRMAIGELVAARILIRRQGKGTFVSS,-1.85
8,HMPMDYFELFNIPRNANRETIKKILDQEYEKYRARVVSPVLEIRHEAELMLVEISKAKQVLLG,0.111
9,HMTYFIADLIGLQVYTDSGELLGKVDDIYNSGSADIYVVKDELGKQILLPGIKDVIKQIDVDNEKIIVHLI,-0.885
10,HMGYPGLGSIGSKPLGDLLFQSKLFVKTKREFAEFKMANNNIVWGRRTQYLVRNYPLSVMEVFL,-0.0279
11,HMEQSLNTYSIRTVKESLFLAETKNLNKIEKLVEGIEGRLTLSEALVLFSDKLNAMSVLSHVNANT,-0.148
12,HMEDSHIYPVSFNGKMRFKLELPVSMNKKEIEEVVLQHEDAQKWLNGQNPKKVIVVPKRIINIV,0.0081
13,HMLNLNILTDKEKFIAKLISRGLSDSLIAKELYISISTVRSHVNSIYGKTNIKNRSHLASSFLYFELGNLL,-0.135
14,HMYSINKTEFGERIKSAREELKMTQTQLAQLLKTSQTTVAKYEHGEQIPRADVLATISKATGKSTDWLLFG,-0.017
15,HMNGLNISYRMDGENVVETIVFPDATMIRTIAPNGVMTIKTIEDGSVSTSELKADYKLYKKIYESQY,-0.262
16,HMIDKIRYPELIMKLAHQQGGTIKRRDVEQLLHLQTKQAYRELSKLVDAGELVSVGRGPGAHYEVS,0.042
17,HMGSLVVVPNLVGQNYDEVKLSTKYSDFEIVQKNTEYSEAPAGQIIKQDPEAGTKVKKHSTINVTVSK,-0.354
18,HMETGEDSLRRYFNSLPGSASKREILEDNPTVSQRTTERILQKLQAEGFIEKVGAARATRYRKVKQ,0.209
19,HMADLNFHQQIRSLPPEQQEILLLRFGQELTLRQIAQVTGVPLRTVQSRLRAALKKLKSQLEKEE,-0.39
20,HMGPDTVDRTRRFKWVDNEVVVNFGKNAGRTLRDLAENDPGFLRWIVRSDFSDEVRTIANDALMGKFPTRK,0.00109
21,HMNIKITKSKNSEHYSIIYNTKINGKRTSKIYENIGNFEKLKLRAGEQEPIEWLKNYVSELNKKQKEDT,0.109
22,HMVPADVQHLRDIVDTMTEKQQLVYKLHVLEGYTFTEIAKLMGTSIPNVKKHYDKAILFIKNNF,-0.909
23,HMEQISDEDTLRKMVNEVLDNNQTQLEQYKSGKTNLIGFFVGQTLKKSAGKANPSIVNKLVNEEIYI,0.00998
24,HMTSMNNTEELIDMANKIIDNNPNMVLKYKEGRNVLDFFIGQVMKETKGRANPSATSKIFKDLLEK,0.169
25,HMQPTVEGLMKALETMTFNERTALALHYGLTGRQPMTFMAIGRYLGISDGRAEALVNSAIRKLR,-1.43
26,HMKMLEINDNDSVGLKNLKTQYNHNQKVIENFQLEINKVINDGELPDKYLLDGMEKYQKLNMQIMSTIEKQ,0.00483

row,Sequence,soluble fraction (log2)
1,HMKVRDTQYIIEAAISKNVIRKSKNIYYYGTDIIGRSLEDAIASLNDKKNQDIKMTILQEIES,-0.493
2,HMAQIVNLPRKNVNGASYYYYEVQPKETIYSISRKLGVSGAEIQRHNPSVADGLKIGQVLYFPAEG,0.0843
3,HMAEQLGNSRTANMVMLGAMIERTGVISIDSAMEALKATFGPKKEHLLPINRQAMEAGAAAARAV,0.303
4,HMAQVSDTGAIAKIVADAIAANPKQVQQYLDGNEKVLMYLVGQVMKLSKGKANPPMVIQLLKEQLG,-0.0543
5,HMLPSMENWLGELSFWQTPWWERRDFSTFDNIAQSKEELDEFMSRDDNGAILERMQDPINTIEAE,-0.46
6,HMSSGLLTVQEQRILEHLANGERNGDIAGRLHISEGTVKWHLHNMYRKLDAATRTQAVARARALRL,-0.109
7,HMNLYENLATHVKNAIRQGVYQPGDRLPSVRRLSEQHRVSQNTAVSAYRLLESHGWLEARPQSGFFARHP,-1.11
8,HMFPELSEEEQIIVSLLQKQPDGLQINTLVVESNIPVNRMSGILFELEMKGIIRMAAGGVYRLL,-0.203
9,HMRGGKGTVPDVTGMDAAAAVRILEKAGMNVAYIRGAGFVAEQTPAAGTKLKKGDKAYITLSWK,-0.0707
10,HMTLTEQQITDNYKELRKIINDTFSGLRLDKLNHMYDDLEDRMVVAPASSVEHYHNSKVGGYVEHILHVI,-0.187
11,HMTRQPSAKEHAVLTAVKEGLRRDGRAPTVRALADMTGAASTSTVQRRISALIDLGLLRRTDGTLEVVE,-0.000402
12,HMGIEIKLLMSFMTDSGRKVSLFVTDPREDVTETEIKQVMDLIIEKNIFAPNGEDIVSAKEAKIVQT,-1.25
13,HMRNSFTVENTGERLDVFLTGQMPEFSRSHIQKLIASGQAWVNGVNRKGNFKLKPHDVVELEVPEPE,0.53
14,HMKDHKSKWMAKTELDSIAKNLSKKHAISLDYEEDGTRFYAGGQSPLGIGRLFTVFVAPRNGHWSDQLR,0.189
15,HMPAMYKAERMNQILSILADQGDVDVGTLARQFGVSLVTIRKDLTYLESSGQLVRTHGGAIAVA,-0.767
16,HMTIQNSILDEIPNIGASRKRAILEAFGSVHRLRKASPEMISAKVEGIGPEMAQAIHDYLVKHPAT,0.19
17,HMEITGKYKAKEDIKLKVIPLISSLDLQDIKQNTELEVKDTMNNWAYVTVQEKQGWVVLEKIEKVE,-0.0549
18,HMDRSKREKEQQELMLKVQQIFDDNQQRFGAEKIRTVLAQNGVRVSVKRVSAIMQELNLRSIR,-0.871
19,HMERFVVISKDKYANLREEASTNSKVLAKVDNSYLIYNTNTYNENKDWYSVQIERDGNYYQVGYIHKSQL,-1.79
20,HMNDVEAIDDALKDLHKVSPDLAALVEMKFFGGMTEPEISEILGVSERTVRREWEKARAALLVLLE,-1.41
21,HMKIQEVDYSTFLNMLNEKSIAQVEIQDNQIAFNSNQEGNKQIYVTGRIEEDTELVNRLQAAGVQFSRV,0.079
22,HMLPITPGQKYKFVVKSAEEAAAIIRDKLGEMAQVISVRQVEGEGLARFLKSPKLEIIAQVPVA,-0.132
23,HMTESFEFTMNDLVQNNLIMGSGAKERRIAVGEALGIGYTNAKQFLSRLNHYGITRKEFDDEIEKVNQN,-0.158
24,HMVNGEFIDRIKVILQENNATRKKDRLTKTRMYQLLQEEGYEGSYSAFTYQVRIIEEELGINNK,-1.51
